Experimental data from patent US20150197568A1 (AstraZeneca / MedImmune, published 2015).

How the values were obtained:
Mature human IL-6 [1] = molecular target: T1, Mature human IL-6 (human, UniProt P05231 30-212); test: cell-based or functional assay
Mature human IL-6 [2] = molecular target: T1, Mature human IL-6; test: cell-based or functional assay; remark: listed apart in the source
[3] = molecular target: T2, HIS FLAG tagged human IL-6 (human, UniProt P05231 30-212); test: HTRF antibody-ligand competition; competitor biotinylated CAN022D10 IgG; protocol modified for IgG (footnote)
T2 construct: In house; also called HIS FLAG IL-6; HIS/FLAG IL-6
T2 sequence (P05231 other isoform, or with tags, fused parts or gaps): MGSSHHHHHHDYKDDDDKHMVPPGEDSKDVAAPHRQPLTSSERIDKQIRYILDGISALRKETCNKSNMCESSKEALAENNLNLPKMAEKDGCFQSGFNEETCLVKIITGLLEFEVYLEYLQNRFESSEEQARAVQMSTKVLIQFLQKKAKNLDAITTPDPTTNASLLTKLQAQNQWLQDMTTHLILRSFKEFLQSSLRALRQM
Description: (§1) Crude scFv preparations from a representative number of individual clones for the round 3 and round 4 outputs were screened for their inhibitory activity in a CAN022D10 IgG-IL-6 HTRF® binding assay. In this assay, binding of biotinyated antibody and FLAG-tagged IL-6 was detected using cryptate labelled anti-FLAG monoclonal antibody and streptavidin XL^{ent!}™. The detailed assay method is provided in the Materials and Methods section.
(§2) The IC₅₀ value for each scFv was then calculated from data obtained by a testing dilution series of the purified sample in the HTRF antibody-ligand biochemical assay and TF-1 proliferation assay.

Mature human IL-6 [4] = molecular target: T1, Mature human IL-6; test: cell-based or functional assay; remark: listed apart in the source
Mature human IL-6 [5] = molecular target: T1, Mature human IL-6; test: cell-based or functional assay; remark: listed apart in the source
[6] = molecular target: T2, HIS FLAG tagged human IL-6; test: HTRF antibody-ligand competition; competitor biotinylated CAN022D10 IgG
Description: as §1, §2

T1 sequence (P05231 30-212): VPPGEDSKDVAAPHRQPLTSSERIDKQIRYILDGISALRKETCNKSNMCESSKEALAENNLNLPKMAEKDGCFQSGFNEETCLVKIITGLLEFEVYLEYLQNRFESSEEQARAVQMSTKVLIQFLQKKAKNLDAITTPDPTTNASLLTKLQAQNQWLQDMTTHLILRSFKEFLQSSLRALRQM

B1: Antibody 10 (GL) IgG (antibody, V domains shown)
VH: EVQLVESGGGLVQPGGSLRLSCAASGFTISSNYMIWVRQAPGKGLEWVSDLYYYAGDTYYADSVKGRFTMSRDISKNTVYLQMNSLRAEDTAVYYCARWEEEGRGYIDVWGRGTLVTVSS
VL: DIQMTQSPSTLSASVGDRVTITCRASQGISSWLAWYQQKPGKAPKVLIYKASTLESGVPSRFSGSGSGTEFTLTISSLQPDDFATYYCQQSWLGGSFGQGTKLEIKR
Mature human IL-6 [1]
  IC50, IL-6 induced TF-1 cell proliferation assay: 0.071 nM
Mature human IL-6 [2]
  IC50, endogenous IL-6 induced synovial fibroblast VEGF release assay: 0.55 nM

B2: Antibody 2 IgG (antibody, V domains shown)
VH: EVQLVQSGGGLIQPGGSLRLSCAASGFTISSNYMTWVRQAPGKGLEWVSDLYYYAGDTYYADSVRGRFTMSRDISKNTVYLQMDSLRAEDTGVYYCARWADGHYYYIDVWGGGTLVTVSS
VL: DIVMTQSPSTLSASVGDRVTITCRASQGISSWLTWYQQKPGRAPKVLIYKASTLESGVPSRFSGSGSGTDFTLTISSLQPEDFATYYCQQSYSAPWTFGQGTKLELKR
notes: Non-germlined; also called Ab 2
[3]
  IC50: 0.036 nM
Mature human IL-6 [2]
  IC50, endogenous IL-6 induced synovial fibroblast VEGF release assay: 0.59 nM
Mature human IL-6 [4]
  IC50, TF-1 Proliferation Assay: 0.016 nM

B3: Antibody 16 IgG (antibody, V domains shown)
VH: EVQLVQSGGGLIQPGGSLRLSCAASGFTISSNYMIWVRQAPGKGLEWVSDLYYYAGDTYYADSVKGRFTMSRDISKNTVYLQMNSLRAEDTGVYYCARWADDHPPYIDLWGRGTLVTVSS
VL: DIVMTQSPSTLSASVGDRVTITCRASQGISSWLAWYQQKPGRAPKVLIYKASTLESGVPSRFSGSGSGTDFTLTISSLQPEDFATYYCQQSWLGGSFGQGTKLEIKR
Mature human IL-6 [5]
  IC50, TF-1 cell proliferation assay: 0.0049 nM

B4: Antibody 14 IgG (antibody, V domains shown)
VH: EVQLVQSGGGLIQPGGSLRLSCAASGFTISSNYMIWVRQAPGKGLEWVSDLYYYAGDTYYADSVKGRFTMSRDISKNTVYLQMNSLRAEDTGVYYCARWADDHNYPHIDVWGRGTLVTVSS
VL: DIVMTQSPSTLSASVGDRVTITCRASQGISSWLAWYQQKPGRAPKVLIYKASTLESGVPSRFSGSGSGTDFTLTISSLQPEDFATYYCAAHYAAPWTFGQGTKLEIKR
Mature human IL-6 [5]
  IC50, TF-1 cell proliferation assay: 0.031 nM

B5: Antibody 19 IgG (antibody, V domains shown)
VH: EVQLVQSGGGLIQPGGSLRLSCAASGFTISSNYMIWVRQAPGKGLEWVSDLYYYAGDTYYADSVKGRFTMSRDISKNTVYLQMNSLRAEDTGVYYCARWADDHPSHLDIWGRGTLVTVSS
VL: DIVMTQSPSTLSASVGDRVTITCRASQGISSWLAWYQQKPGRAPKVLIYKASTLESGVPSRFSGSGSGTDFTLTISSLQPEDFATYYCQQSWLGGSFGQGTKLEIKR
Mature human IL-6 [5]
  IC50, TF-1 cell proliferation assay: 0.068 nM

B6: Antibody 8 IgG (antibody, V domains shown)
VH: EVQLVQSGGGLIQPGGSLRLSCAASGFTISSNYMIWVRQAPGKGLEWVSDLYYYAGDTYYADSVKGRFTMSRDISKNTVYLQMNSLRAEDTGVYYCARWADDHPRYIDHWGRGTLVTVSS
VL: DIVMTQSPSTLSASVGDRVTITCRASQGISSWLAWYQQKPGRAPKVLIYKASTLESGVPSRFSGSGSGTDFTLTISSLQPEDFATYYCQQSWLGGSFGQGTKLEIKR
Mature human IL-6 [5]
  IC50, TF-1 cell proliferation assay: 0.048 nM

B7: Antibody 23 IgG (antibody, V domains shown)
VH: EVQLVQSGGGLIQPGGSLRLSCAASGFTISSNYMIWVRQAPGKGLEWVSDLYYYAGDTYYADSVKGRFTMSRDISKNTVYLQMNSLRAEDTGVYYCARWADDHAPWVDLWGRGTLVTVSS
VL: DIVMTQSPSTLSASVGDRVTITCRASQGISSWLAWYQQKPGRAPKVLIYKASTLESGVPSRFSGSGSGTDFTLTISSLQPEDFATYYCQQSWLGGSFGQGTKLEIKR
Mature human IL-6 [5]
  IC50, TF-1 cell proliferation assay: 0.02 nM

B8: Antibody 5 IgG (antibody, V domains shown)
VH: EVQLVQSGGGLIQPGGSLRLSCAASGFTISSNYMIWVRQAPGKGLEWVSDLYYYAGDTYYADSVKGRFTMSRDISKNTVYLQMNSLRAEDTGVYYCARWADGHYYYADVWGRGTLVSVSS
VL: DIVMTQSPPTLSASVGDRVTITCRASQGISSWLAWYQQKPGRAPKVLIYKASTLESGVPSRFSGSGSGTDFTLTISSLQPEDFASYYCQQSYSAPWTFGQGTKLEIKR
notes: Non-germlined; IgG1 with human heavy chain and kappa constant domains; also called Ab 5
[3]
  IC50: 0.026 nM
Mature human IL-6 [2]
  IC50, endogenous IL-6 induced synovial fibroblast VEGF release assay: 0.7 nM
Mature human IL-6 [4]
  IC50, TF-1 Proliferation Assay: 0.042 nM

B9: Antibody 3 IgG (antibody, V domains shown)
VH: QVQLVQSGGGLIQPGGSLRLSCAASGFTISSNYMVWVRQAPGKGLEWVSDLYYYAGDTYYADSVKGRFTVSRDISKNTVYLQMNSLRAEDTGVYYCARWADDHYYHIDVWGRGTLVTVSS
VL: DIVMTQSPSTLSASVGDRVTITCRASQGISSWLAWYQQKPGRAPKALIYKASTLESGVPSRFSGSGSGTDFTLTISSLQPEDFATYYCQQSYSTPWTFGQGTKLEIKR
notes: Non-germlined; IgG1 with human heavy chain and kappa constant domains; also called Ab 3
[3]
  IC50: 0.043 nM
Mature human IL-6 [2]
  IC50, endogenous IL-6 induced synovial fibroblast VEGF release assay: 0.38 nM
Mature human IL-6 [4]
  IC50, TF-1 Proliferation Assay: 0.05 nM

B10: Antibody 4 scFv (scFv, V domains shown)
VH: EVQLVQSGGGLIQPGGSLRLSCAASGFTVSSNYMTWVRQAPGKGLEWVSDLYYYAGDTYYADSVKGRFTMSRDISKNTVYLQMNSLRAEDTGVYYCARWADGHYYYADVWGRGTLVSVSS
VL: DIVMTQSPSTLSASVGDRVTITCRASQGISSWLAWYQQKPGRAPKVLIYKASTLESGVPSRFSGSGSGTDFTLTISSLQPEDFASYYCQQSYSAPWTFGQGTKLELKR
notes: Non-germlined; also called Ab 4; not shown: scFv linker, domain order and any purification tags
[6]
  IC50: 0.024 nM
Mature human IL-6 [4]
  IC50, TF-1 Proliferation Assay: 13.4 nM

B11: Antibody 3 scFv (scFv, V domains shown)
VH: QVQLVQSGGGLIQPGGSLRLSCAASGFTISSNYMVWVRQAPGKGLEWVSDLYYYAGDTYYADSVKGRFTVSRDISKNTVYLQMNSLRAEDTGVYYCARWADDHYYHIDVWGRGTLVTVSS
VL: DIVMTQSPSTLSASVGDRVTITCRASQGISSWLAWYQQKPGRAPKALIYKASTLESGVPSRFSGSGSGTDFTLTISSLQPEDFATYYCQQSYSTPWTFGQGTKLEIKR
notes: Non-germlined; also called Ab 3; not shown: scFv linker, domain order and any purification tags
[6]
  IC50: 0.022 nM
Mature human IL-6 [4]
  IC50, TF-1 Proliferation Assay: 7.3 nM

B12: Antibody 5 scFv (scFv, V domains shown)
VH: EVQLVQSGGGLIQPGGSLRLSCAASGFTISSNYMIWVRQAPGKGLEWVSDLYYYAGDTYYADSVKGRFTMSRDISKNTVYLQMNSLRAEDTGVYYCARWADGHYYYADVWGRGTLVSVSS
VL: DIVMTQSPPTLSASVGDRVTITCRASQGISSWLAWYQQKPGRAPKVLIYKASTLESGVPSRFSGSGSGTDFTLTISSLQPEDFASYYCQQSYSAPWTFGQGTKLEIKR
notes: Non-germlined; also called Ab 5; not shown: scFv linker, domain order and any purification tags
[6]
  IC50: 0.065 nM
Mature human IL-6 [4]
  IC50, TF-1 Proliferation Assay: 12.4 nM

B13: Antibody 4 IgG (antibody, V domains shown)
VH: EVQLVQSGGGLIQPGGSLRLSCAASGFTVSSNYMTWVRQAPGKGLEWVSDLYYYAGDTYYADSVKGRFTMSRDISKNTVYLQMNSLRAEDTGVYYCARWADGHYYYADVWGRGTLVSVSS
VL: DIVMTQSPSTLSASVGDRVTITCRASQGISSWLAWYQQKPGRAPKVLIYKASTLESGVPSRFSGSGSGTDFTLTISSLQPEDFASYYCQQSYSAPWTFGQGTKLELKR
notes: Non-germlined; IgG1 with human heavy chain and kappa constant domains; also called Ab 4
[3]
  IC50: 0.043 nM
Mature human IL-6 [2]
  IC50, endogenous IL-6 induced synovial fibroblast VEGF release assay: 0.52 nM
Mature human IL-6 [4]
  IC50, TF-1 Proliferation Assay: 0.061 nM

B14: Antibody 2 scFv (scFv, V domains shown)
VH: EVQLVQSGGGLIQPGGSLRLSCAASGFTISSNYMTWVRQAPGKGLEWVSDLYYYAGDTYYADSVRGRFTMSRDISKNTVYLQMDSLRAEDTGVYYCARWADGHYYYIDVWGGGTLVTVSS
VL: DIVMTQSPSTLSASVGDRVTITCRASQGISSWLTWYQQKPGRAPKVLIYKASTLESGVPSRFSGSGSGTDFTLTISSLQPEDFATYYCQQSYSAPWTFGQGTKLELKR
notes: Non-germlined; also called Ab 2; not shown: scFv linker, domain order and any purification tags
[6]
  IC50: 0.035 nM
Mature human IL-6 [4]
  IC50, TF-1 Proliferation Assay: 9.6 nM
